The experiment deals with T1, Xanthomonas campestris pv. campestris (Xcc) LolB, periplasmic variant (Xanthomonas campestris pv. campestris …).
T1 chain: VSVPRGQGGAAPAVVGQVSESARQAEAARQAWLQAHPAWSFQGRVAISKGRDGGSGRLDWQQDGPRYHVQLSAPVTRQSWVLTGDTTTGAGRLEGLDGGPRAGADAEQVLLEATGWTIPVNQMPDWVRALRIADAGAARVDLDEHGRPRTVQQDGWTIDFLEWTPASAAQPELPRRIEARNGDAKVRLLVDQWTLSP
The experiment is described as follows: ITC; LolA 1 mM in the syringe, LolB 0.1 (unit inferred) in the cell; 25.0 °C; 20 mM TRIS-HCl pH 7.8, 150 mM NaCl, 5% glycerol; 1:1 binding model; triplicate. The note with it: both partners purified. (Isothermal titration calorimetry measures the heat released or taken up as one component is titrated into another.)

B1: Xanthomonas campestris pv. campestris (Xcc) LolA (natural protein)
chain: GARQELDTFTRGLKGLDGQFSQRVTDANGRVKENSSGRVALATPRQFRWEYAKPYKQLIVADGKKVWVFDPDLEQVTVRAQGSEEQNSPLVALIDPTRLDKQYDVSEEAAPRDGLQWLSLTPKVDTDASFQMASLGFGKDGLAKMEVVDAVGQRTAISFSGWKRNPAFAADTFRYTPGKGVDVVGDAQ
Consider B1, for which the dissociation constant Kd came out at 14.6 ± 1 µM, the dH is -1.63 ± 0.03 kcal/mol and the “stoichiometry N” value was found to be 0.96 ± 0.04.

As a reminder, the Kd is a measure of binding affinity in units of concentration. A lower Kd goes with tighter binding. One may read the stoichiometry N as the number of molecules, sites or subunits per partner or assembly.

Source of the values: article PMC10368991, “LolA and LolB from the plant-pathogen Xanthomonas campestris forms a stable heterodimeric complex in the absence of lipoprotein” (Frontiers in Microbiology, 2023).
